{"source": "the RNAGym collection of RNA variant scans (doi:10.1093/molbev/msab373)", "parents": {"B1": {"name": "Azoarcus group I ribozyme (parent)", "chain": "GUGCCUUGCGCCGGGAAACCACGCAAGGGAUGGUGUCAAAUUCGGCGAAACCUAAGCGCCCGCCCGGGCGUAUGGCAACGCCGAGCCAAGCUUCGGCGCCUGCGCCGAUGAAGGUGUAGAGACUAGACGGCACCCACCUAAGGCAAACGCUAUGGUGAAGGCAUAGUCCAGGGAGUGGCGAAAGUCACACAAACCGG"}}, "data": [{"variants_of": "B1", "assay": "reverse-splicing fitness (ratio to wild type); higher = more active; in vitro selection; Mg2+ level not given", "how_it_was_run": "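An in vitro group I ribozyme library with randomized positions was T7-transcribed and gel-purified. In triplicate, 10 pmol RNA in EPPS pH 7.5 was reacted with 50 pmoles of a 30-nt RNA substrate for 1 h at 37 °C across several added MgCl2 levels (1–48 mM), then stopped with EDTA. Products were reverse transcribed from a substrate-complementary primer, PCR-amplified and sequenced (HiSeq 4000). Fitness is a variant's read proportion after selection over that before, normalised to wild type.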", "values": [{"variant": "C82U A111G A120C A145U C169G U176C", "reverse-splicing fitness": 0.00823}, {"variant": "C82U A111G A120C A145U C169G U176G", "reverse-splicing fitness": 0.00375}, {"variant": "C82U A111G A120C A145U C169G U176A", "reverse-splicing fitness": 0.00935}, {"variant": "C82U A111G A120G A145G C150U U176C", "reverse-splicing fitness": 0.0166}, {"variant": "C82U A111G A120G A145G C150U U176A", "reverse-splicing fitness": 0.00859}, {"variant": "C82U A111G A120G A145G C150U U176G", "reverse-splicing fitness": 0.00622}, {"variant": "C82U A111G A120C C150U C169A", "reverse-splicing fitness": 0.00965}, {"variant": "C82U A111G A120C C150U C169G", "reverse-splicing fitness": 0.00986}, {"variant": "C82U A111G A120C C150U C169U", "reverse-splicing fitness": 0.0124}, {"variant": "C82U A111G A120G A145U C150A U176C", "reverse-splicing fitness": 0.013}, {"variant": "C82U A111G A120G A145U C150A U176G", "reverse-splicing fitness": 0.00406}, {"variant": "C82U A111G A120G A145U C150A U176A", "reverse-splicing fitness": 0.00974}, {"variant": "C82U A111G A120G A145G C150G C169U", "reverse-splicing fitness": 0.00855}, {"variant": "C82U A111G A120G A145G C150G C169G", "reverse-splicing fitness": 0.00721}, {"variant": "C82U A111G A120G A145G C150G C169A", "reverse-splicing fitness": 0.00895}, {"variant": "C82U A111G A120C A145U C150A C169G U176G", "reverse-splicing fitness": 0.00457}, {"variant": "C82U A111G A120C A145U C150A C169G U176A", "reverse-splicing fitness": 0.0153}, {"variant": "C82U A111G A120C A145U C150A C169G U176C", "reverse-splicing fitness": 0.0112}, {"variant": "C82U A111G A120G A145U U176A", "reverse-splicing fitness": 0.0116}, {"variant": "C82U A111G A120G A145U U176C", "reverse-splicing fitness": 0.0141}, {"variant": "C82U A111G A120G A145U U176G", "reverse-splicing fitness": 0.00443}, {"variant": "C82U A111G A120C A145U", "reverse-splicing fitness": 0.0519}, {"variant": "C82U A111G A120G A145U C150U C169U U176C", "reverse-splicing fitness": 0.0131}, {"variant": "C82U A111G A120G A145U C150U C169U U176G", "reverse-splicing fitness": 0.00432}, {"variant": "C82U A111G A120G A145U C150U C169U U176A", "reverse-splicing fitness": 0.02}, {"variant": "C82U A111G A120C C150G U176G", "reverse-splicing fitness": 0.00249}, {"variant": "C82U A111G A120C C150G U176A", "reverse-splicing fitness": 0.00392}, {"variant": "C82U A111G A120C C150G U176C", "reverse-splicing fitness": 0.00984}, {"variant": "C82U A111G A120G A145U C150A C169A U176C", "reverse-splicing fitness": 0.00962}, {"variant": "C82U A111G A120G A145U C150A C169A U176A", "reverse-splicing fitness": 0.013}, {"variant": "C82U A111G A120G A145U C150A C169A U176G", "reverse-splicing fitness": 0.00458}, {"variant": "C82U A111G A120C C150G C169U U176C", "reverse-splicing fitness": 0.0138}, {"variant": "C82U A111G A120C C150G C169U U176G", "reverse-splicing fitness": 0.00489}, {"variant": "C82U A111G A120C C150G C169U U176A", "reverse-splicing fitness": 0.00617}, {"variant": "C82U A111G A120G A145C C150U C169A U176C", "reverse-splicing fitness": 0.00548}, {"variant": "C82U A111G A120G A145C C150U C169A U176A", "reverse-splicing fitness": 0.0104}, {"variant": "C82U A111G A120G A145C C150U C169A U176G", "reverse-splicing fitness": 0.00395}, {"variant": "C82U A111G A120G A145U C150A C169U U176G", "reverse-splicing fitness": 0.0048}, {"variant": "C82U A111G A120G A145U C150A C169U U176A", "reverse-splicing fitness": 0.019}, {"variant": "C82U A111G A120G A145U C150A C169U U176C", "reverse-splicing fitness": 0.0142}, {"variant": "C82U A111G A120G A145C U176A", "reverse-splicing fitness": 0.0105}, {"variant": "C82U A111G A120G A145C U176G", "reverse-splicing fitness": 0.00368}, {"variant": "C82U A111G A120G A145C U176C", "reverse-splicing fitness": 0.00983}, {"variant": "C82U A111G A120G A145C C169U U176C", "reverse-splicing fitness": 0.0105}, {"variant": "C82U A111G A120G A145C C169U U176G", "reverse-splicing fitness": 0.00353}, {"variant": "C82U A111G A120G A145C C169U U176A", "reverse-splicing fitness": 0.0189}, {"variant": "C82U A111G A120C A145G U176G", "reverse-splicing fitness": 0.00519}, {"variant": "C82U A111G A120C A145G U176A", "reverse-splicing fitness": 0.0202}, {"variant": "C82U A111G A120C A145G U176C", "reverse-splicing fitness": 0.0318}, {"variant": "C82U A111G A120C C150A C169A U176A", "reverse-splicing fitness": 0.0215}, {"variant": "C82U A111G A120C C150A C169A U176C", "reverse-splicing fitness": 0.0156}, {"variant": "C82U A111G A120C C150A C169A U176G", "reverse-splicing fitness": 0.0042}, {"variant": "C82U A111G A120G A145G C150U C169U U176A", "reverse-splicing fitness": 0.0187}, {"variant": "C82U A111G A120G A145G C150U C169U U176G", "reverse-splicing fitness": 0.00525}, {"variant": "C82U A111G A120G A145G C150U C169U U176C", "reverse-splicing fitness": 0.0162}, {"variant": "C82U A111G A120G C150A C169G U176A", "reverse-splicing fitness": 0.0186}, {"variant": "C82U A111G A120C A145U C150A C169U U176A", "reverse-splicing fitness": 0.0139}, {"variant": "C82U A111G A120C A145U C150A C169U U176G", "reverse-splicing fitness": 0.00404}, {"variant": "C82U A111G A120C A145U C150A C169U U176C", "reverse-splicing fitness": 0.0132}, {"variant": "C82U A111G A120G A145G C150A U176G", "reverse-splicing fitness": 0.00593}, {"variant": "C82U A111G A120G A145G C150A U176C", "reverse-splicing fitness": 0.0196}, {"variant": "C82U A111G A120G A145G C150A U176A", "reverse-splicing fitness": 0.0088}, {"variant": "C82U A111G A120G A145C C150A C169U U176A", "reverse-splicing fitness": 0.0192}, {"variant": "C82U A111G A120G A145C C150A C169U U176C", "reverse-splicing fitness": 0.00907}, {"variant": "C82U A111G A120G A145C C150A C169U U176G", "reverse-splicing fitness": 0.00373}, {"variant": "C82U A111G A120G A145C C150A C169A U176A", "reverse-splicing fitness": 0.0114}, {"variant": "C82U A111G A120G A145C C150A C169A U176C", "reverse-splicing fitness": 0.00481}, {"variant": "C82U A111G A120G A145C C150A C169A U176G", "reverse-splicing fitness": 0.00425}, {"variant": "C82U A111G A120C A145U C150A C169A U176G", "reverse-splicing fitness": 0.00469}, {"variant": "C82U A111G A120C A145U C150A C169A U176A", "reverse-splicing fitness": 0.0128}, {"variant": "C82U A111G A120C A145U C150A C169A U176C", "reverse-splicing fitness": 0.00758}, {"variant": "C82U A111G A120C C169U U176C", "reverse-splicing fitness": 0.014}, {"variant": "C82U A111G A120C C169U U176A", "reverse-splicing fitness": 0.0149}, {"variant": "C82U A111G A120C C169U U176G", "reverse-splicing fitness": 0.00349}, {"variant": "C82U A111G A120G A145U C150U C169G U176G", "reverse-splicing fitness": 0.00409}, {"variant": "C82U A111G A120G A145U C150U C169G U176A", "reverse-splicing fitness": 0.0116}, {"variant": "C82U A111G A120G A145U C150U C169G U176C", "reverse-splicing fitness": 0.0132}, {"variant": "C82U A111G A120C A145U C150U C169A U176A", "reverse-splicing fitness": 0.0106}, {"variant": "C82U A111G A120C A145U C150U C169A U176C", "reverse-splicing fitness": 0.00827}, {"variant": "C82U A111G A120C A145U C150U C169A U176G", "reverse-splicing fitness": 0.00488}, {"variant": "C82U A111G A120C A145U U176A", "reverse-splicing fitness": 0.017}, {"variant": "C82U A111G A120C A145U U176C", "reverse-splicing fitness": 0.0251}, {"variant": "C82U A111G A120C A145U U176G", "reverse-splicing fitness": 0.00658}]}]}
